In article PMC3464217:

Biological target: recombinant gp160 (HIV (IIIB or MN/LAI))
Assay: SPR
Conditions: bispecific antibody

Substance	Ka [M⁻¹]	Kd [nM]
HY-[Fx2-Hx4-Fx2]-7B2 (from UniProt P01857)	4.6e+10	0.021
HY-[Hx4]-7B2 (from UniProt P01857)	1.7e+10	
